5 molecules from US20200283525A1 (published 2020) can be followed below.

One test addresses mouse CTLA-4 protein (mouse, UniProt P09793 36-161). The experiment in a line: ELISA.
The target in the next test is Mouse CTLA4 (mouse, UniProt P09793 36-161). Kind of test: ELISA.

Substitutions are numbered along the chain they refer to.

B1: 9D9 DMAb original (antibody)
chain 1: EAKLQESGPVLVKPGASVKMSCKASGYTFTDYYMNWVKQSHGKSLEWIGVINPYNGDTSYNQKFKGKATLTVDKSSSTAYMELNSLTSEDSAVYYCARYYGSWFAYWGQGTLITVSTAKTTPPSVYPLAPGCGDTTGSSVTLGCLVKGYFPESVTVTWNSGSLSSSVHTFPALLQSGLYTMSSSVTVPSSTWPSQTVTCSVAHPASSTTVDKKLEPSGPISTINPCPPCKECHKCPAPNLEGGPSVFIFPPNIKDVLMISLTPKVTCVVVDVSEDDPDVQISWFVNNVEVHTAQTQTHREDYNSTIRVVSTLPIQHQDWMSGKEFKCKVNNKDLPSPIERTISKIKGLVRAPQVYILPPPAEQLSRKDVSLTCLVVGFNPGDISVEWTSNGHTEENYKDTAPVLDSDGSYFIYSKLNMKTSKWEKTDSFSCNVRHEGLKNYYLKKTISRSPGK
chain 2: DIVMTQTTLSLPVSLGDQASISCRSSQSIVHSNGNTYLEWYLQKPGQSPKLLIYKVSNRFSGVPDRFSGSGSGTDFTLKISRVEAEDLGVYYCFQGSHVPYTFGGGTKLEIKRADAAPTVSIFPPSSEQLTSGGASVVCFLNNFYPKDINVKWKIDGSERQNGVLNSWTDQDSKDSTYSMSSTLTLTKDEYERHNSYTCEATHKTSTSPIVKSFNRNEC
For B1, it took 0.0434 µg/mL to reach half-maximal inhibition in the test with mouse CTLA-4 protein (IC50).

B2: 9D9 DMAb mod #3 (antibody)
chain 1: B1 chain 1 with A2V, K3Q, E6Q
chain 2: B1 chain 2
Molecule B2 displayed an IC50 with mouse CTLA-4 protein of 0.0361 µg/mL.

B3: 9D9 DMAb mod #2 (antibody)
chain 1: B1 chain 1 with I113V, T117S
chain 2: B1 chain 2
The molecule B3 gave an IC50 in the test with mouse CTLA-4 protein of 0.0409 µg/mL.

B4: 9D9 DMAb mod #4 (antibody)
chain 1: B1 chain 1 with A2V, K3Q, E6Q, I113V, T117S
chain 2: B1 chain 2
On to B4, for which, in the test with mouse CTLA-4 protein, the IC50 stood at 0.0367 µg/mL. The IC50 values of the last two molecules are within 1.5-fold of each other.

B5: 9D9 standard (antibody)
chain 1: B1 chain 1
chain 2: B1 chain 2
For the molecule B5, the IC50 with Mouse CTLA4 came out at 0.0442 µg/mL.
